# Assay results taken from publication PMC12655336, “Study on the High-Efficiency Expression of Horseradish Peroxidase in Pichia pastoris” (Molecules, 2025).
# How the values were obtained:
# purified protein = substrate: COc1ccccc1O; assay: purified protein; details: 1 mM H2O2, 37 °C, 436 nm
# [1] = substrate: CCn1c(=NN=c2sc3cc(S(=O)(=O)O)ccc3n2CC)sc2cc(S(=O)(=O)O)ccc21; assay: spectrophotometric oxidation, Michaelis-Menten fit; assay type: biochemical, Armoracia rusticana; details: 1 mM H2O2, 37 °C, 415 nm, deglycosylated enzyme
# From the text: (§1) spectrophotometric oxidation, Michaelis-Menten fit on Degly-HRP
# [2] = substrate: Nc1ccccc1N; assay: spectrophotometric oxidation, Michaelis-Menten fit; assay type: biochemical, Armoracia rusticana; details: 1 mM H2O2, 37 °C, 492 nm, deglycosylated enzyme
# From the text: as §1
# [3] = substrate: Cc1cc(-c2cc(C)c(N)c(C)c2)cc(C)c1N; assay: spectrophotometric oxidation, Michaelis-Menten fit; assay type: biochemical, Armoracia rusticana; details: 1 mM H2O2, 37 °C, 450 nm, deglycosylated enzyme
# From the text: as §1
# [4] = substrate: CCn1c(=NN=c2sc3cc(S(=O)(=O)O)ccc3n2CC)sc2cc(S(=O)(=O)O)ccc21; assay: spectrophotometric oxidation, Michaelis-Menten fit; assay type: biochemical, Armoracia rusticana; details: 1 mM H2O2, 37 °C, 415 nm, glycosylated enzyme
# From the text: (§2) spectrophotometric oxidation, Michaelis-Menten fit on HRP-C (W-HRP)
# [5] = substrate: Nc1ccccc1N; assay: spectrophotometric oxidation, Michaelis-Menten fit; assay type: biochemical, Armoracia rusticana; details: 1 mM H2O2, 37 °C, 492 nm, glycosylated enzyme
# From the text: as §2
protein,measurement,setting,value
"Degly-HRP (Armoracia rusticana) (protein, same HRP-C from Pichia pastoris GS115, His-tagged, Ni-NTA purified; deglycosylated with EndoH (O-glycans may remain)) QLTPTFYDNSCPNVSNIVRDTIVNELRSDPRIAASILRLHFHDCFVNGCDASILLDNTTSFRTEKDAFGNANSARGFPVIDRMKAAVESACPRTVSCADLLTIAAQQSVTLAGGPSWRVPLGRRDSLQAFLDLANANLPAPFFTLPQLKDSFRNVGLNRSSDLVALSGGHTFGKNQCRFIMDRLYNFSNTGLPDPTLNTTYLQTLRGLCPLNGNLSALVDFDLRTPTIFDNKYYVNLEEQKGLIQSDQELFSSPNATDTIPLVRSFANSTQTFFNAFVEAMDRMGNITPLTGTQGQIRLNCRVVNSNS",Km,purified protein; deglycosylated enzyme,20.59 µM
same,kcat,purified protein; deglycosylated enzyme,270 s⁻¹
same,Km,[1],45.35 µM
same,kcat,[1],238 s⁻¹
same,Km,[2],41 µM
same,kcat,[2],745 s⁻¹
same,Km,[3],96 µM
same,kcat,[3],238 s⁻¹
"HRP-C (W-HRP) (Armoracia rusticana) (protein, codon-optimised synthetic HRP-C gene, secreted from Pichia pastoris GS115 with MF4I signal peptide, His-tagged, Ni-NTA purified; glycosylated (not EndoH treated)) QLTPTFYDNSCPNVSNIVRDTIVNELRSDPRIAASILRLHFHDCFVNGCDASILLDNTTSFRTEKDAFGNANSARGFPVIDRMKAAVESACPRTVSCADLLTIAAQQSVTLAGGPSWRVPLGRRDSLQAFLDLANANLPAPFFTLPQLKDSFRNVGLNRSSDLVALSGGHTFGKNQCRFIMDRLYNFSNTGLPDPTLNTTYLQTLRGLCPLNGNLSALVDFDLRTPTIFDNKYYVNLEEQKGLIQSDQELFSSPNATDTIPLVRSFANSTQTFFNAFVEAMDRMGNITPLTGTQGQIRLNCRVVNSNS",Km,[4],48.55 µM
same,kcat,[4],267 s⁻¹
same,Km,[5],36 µM
same,kcat,[5],747 s⁻¹
same,kcat,purified protein; glycosylated enzyme,291 s⁻¹
